The values below come from paper PMC6937562.

The assay deals with C3d (human), P01024. Briefly: SPR; homemade HJEM2 chip, 61 RU C3d amine-coupled; FH flowed (2 μM to 3.9 nM); Biacore T200, 25 °C, HBS-P pH 7.4; 1:1 steady-state model. The note with it: remark: other sources report otherwise.

Usually Kd stands for the free concentration of one partner at which half of the binding sites on the other are occupied at equilibrium, for simple one-to-one binding.

Chain of C3d (human), P01024 (P01024 1002-1303): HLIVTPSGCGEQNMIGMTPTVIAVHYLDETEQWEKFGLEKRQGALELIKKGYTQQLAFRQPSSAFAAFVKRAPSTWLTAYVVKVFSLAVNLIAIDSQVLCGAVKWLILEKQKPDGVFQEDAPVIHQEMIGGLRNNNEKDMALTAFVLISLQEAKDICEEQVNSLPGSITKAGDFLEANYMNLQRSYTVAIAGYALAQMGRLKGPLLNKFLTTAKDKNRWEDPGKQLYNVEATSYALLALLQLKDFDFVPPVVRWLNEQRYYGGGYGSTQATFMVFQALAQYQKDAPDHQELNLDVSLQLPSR

B1: factor H, P08603 19-1231 (natural protein)
chain: EDCNELPPRRNTEILTGSWSDQTYPEGTQAIYKCRPGYRSLGNVIMVCRKGEWVALNPLRKCQKRPCGHPGDTPFGTFTLTGGNVFEYGVKAVYTCNEGYQLLGEINYRECDTDGWTNDIPICEVVKCLPVTAPENGKIVSSAMEPDREYHFGQAVRFVCNSGYKIEGDEEMHCSDDGFWSKEKPKCVEISCKSPDVINGSPISQKIIYKENERFQYKCNMGYEYSERGDAVCTESGWRPLPSCEEKSCDNPYIPNGDYSPLRIKHRTGDEITYQCRNGFYPATRGNTAKCTSTGWIPAPRCTLKPCDYPDIKHGGLYHENMRRPYFPVAVGKYYSYYCDEHFETPSGSYWDHIHCTQDGWSPAVPCLRKCYFPYLENGYNQNYGRKFVQGKSIDVACHPGYALPKAQTTVTCMENGWSPTPRCIRVKTCSKSSIDIENGFISESQYTYALKEKAKYQCKLGYVTADGETSGSITCGKDGWSAQPTCIKSCDIPVFMNARTKNDFTWFKLNDTLDYECHDGYESNTGSTTGSIVCGYNGWSDLPICYERECELPKIDVHLVPDRKKDQYKVGEVLKFSCKPGFTIVGPNSVQCYHFGLSPDLPICKEQVQSCGPPPELLNGNVKEKTKEEYGHSEVVEYYCNPRFLMKGPNKIQCVDGEWTTLPVCIVEESTCGDIPELEHGWAQLSSPPYYYGDSVEFNCSESFTMIGHRSITCIHGVWTQLPQCVAIDKLKKCKSSNLIILEEHLKNKKEFDHNSNIRYRCRGKEGWIHTVCINGRWDPEVNCSMAQIQLCPPPPQIPNSHNMTTTLNYRDGEKVSVLCQENYLIQEGEEITCKDGRWQSIPLCVEKIPCSQPPQIEHGTINSSRSSQESYAHGTKLSYTCEGGFRISEENETTCYMGKWSSPPQCEGLPCKSPPEISHGVVAHMSDSYQYGEEVTYKCFEGFGIDGPAIAKCLGEKWSHPPSCIKTDCLSLPSFENAIPMGEKKDVYKAGEQVTYTCATYYKMDGASNVTCINSRWTGRPTCRDTSCVNPPTVQNAYIVSRQMSKYPSGERVRYQCRSPYEMFGDEEVMCLNGNWTEPPQCKDSTGKCGPPPPIDNGDITSFPLSVYAPASSVEYQCQNLYQLEGNKRITCRNGQWSEPPKCLHPCVISREIMENYNIALRWTAKQKLYSRTGESVEFVCKRGYRLSSRSHTLRTTCWDGKLEYPTCAKR
As to B1, the equilibrium dissociation constant (Kd) is 640 nM.
